# ± gives the standard deviation of the averaged measurements.
# Tested on: ATP
# Assay: switch fluorescence ratio, 500 uM ATP over buffer (Cy3 cluster intensity, sum of 5 cycles each) (fold (ratio)); higher = stronger signal-on switching upon ATP binding; sequences stand for … in TCGTCGGCAGCGTCAGATGTGTATAAGAGACAGTTTTTTTTTTTTTTTTTTTTTTTTT…TC
# Conditions: aptamer strand: ATP DNA aptamer (quencher-CACCTGGGGGAGTATTGCGGAGGAAGG + anchor), 100 nM annealed; ATP concentration: 500 uM
# Outline: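 For every switch-domain sequence, the fluorescence ratio is the mean of per-cluster values, each being summed target-cycle Cy3 intensity over summed buffer-cycle Cy3 intensity. Clusters outside 100-1000 RFU were excluded. On a modified Illumina MiSeq flow-cell, the Cy3-labelled switching-strand clusters were annealed to 100 nM quencher-labelled ATP aptamer, imaged in selection buffer and then after 15 min with 500 uM ATP at 22 °C. Five such cycles were run, with NaOH stripping and re-annealing between them.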
# 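Also: ATP exposure 15 min at 22 °C before imaging.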
sequence,measurement,value
CGGGCGCTGG,switch fluorescence ratio,0.995 ± 0.018
CGGGCGGCAG,switch fluorescence ratio,1.04 ± 0.027
CGGGCGGGGC,switch fluorescence ratio,1.04 ± 0.028
CGGGCGGGTA,switch fluorescence ratio,1.034 ± 0.0088
CGGGCGGTCG,switch fluorescence ratio,0.975 ± 0.068
CGGGCGTGCC,switch fluorescence ratio,0.966 ± 0.014
CGGGCTAAGG,switch fluorescence ratio,0.986 ± 0.018
CGGGCTGGCA,switch fluorescence ratio,1.004 ± 0.01
CGGGCTGGGT,switch fluorescence ratio,0.987 ± 0.057
CGGGCTTCGA,switch fluorescence ratio,0.993 ± 0.013
CGGGGAAAAA,switch fluorescence ratio,1.06 ± 0.094
CGGGGAAGCG,switch fluorescence ratio,1.01 ± 0.021
CGGGGAATCA,switch fluorescence ratio,0.991 ± 0.038
CGGGGAGAGC,switch fluorescence ratio,1.03 ± 0.039
CGGGGAGAGG,switch fluorescence ratio,0.998 ± 0.036
CGGGGAGCGT,switch fluorescence ratio,1 ± 0.034
CGGGGAGCTG,switch fluorescence ratio,1.02 ± 0.036
CGGGGAGGGG,switch fluorescence ratio,0.985 ± 0.028
CGGGGAGTAA,switch fluorescence ratio,1.01 ± 0.012
CGGGGAGTTT,switch fluorescence ratio,0.978 ± 0.05
CGGGGATATT,switch fluorescence ratio,1.11 ± 0.23
CGGGGATGAA,switch fluorescence ratio,1.01 ± 0.063
CGGGGCAAAT,switch fluorescence ratio,1.04 ± 0.028
CGGGGCACGT,switch fluorescence ratio,1.16 ± 0.23
CGGGGCAGCT,switch fluorescence ratio,1.1 ± 0.11
CGGGGCATTG,switch fluorescence ratio,1.013 ± 0.0046
CGGGGCGAGG,switch fluorescence ratio,1 ± 0.017
CGGGGCTTTG,switch fluorescence ratio,0.982 ± 0.025
CGGGGGAACG,switch fluorescence ratio,1.01 ± 0.048
CGGGGGAAGG,switch fluorescence ratio,0.979 ± 0.026
CGGGGGAGGC,switch fluorescence ratio,0.96 ± 0.018
CGGGGGAGTC,switch fluorescence ratio,1.02 ± 0.027
CGGGGGATCA,switch fluorescence ratio,1.01 ± 0.049
CGGGGGATTT,switch fluorescence ratio,1.01 ± 0.014
CGGGGGCACC,switch fluorescence ratio,1.07 ± 0.057
CGGGGGCGGA,switch fluorescence ratio,1.04 ± 0.052
CGGGGGCTCG,switch fluorescence ratio,0.989 ± 0.069
CGGGGGCTGT,switch fluorescence ratio,0.964 ± 0.0037
CGGGGGGAGG,switch fluorescence ratio,1.01 ± 0.035
CGGGGGGATA,switch fluorescence ratio,1.07 ± 0.15
CGGGGGGCCC,switch fluorescence ratio,0.97 ± 0.024
CGGGGGGCCG,switch fluorescence ratio,0.995 ± 0.01
CGGGGGGGC,switch fluorescence ratio,1.001 ± 0.01
CGGGGGGGTG,switch fluorescence ratio,1.03 ± 0.096
CGGGGGGTGT,switch fluorescence ratio,1.01 ± 0.023
CGGGGGGTTG,switch fluorescence ratio,0.984 ± 0.033
CGGGGGTAAG,switch fluorescence ratio,0.991 ± 0.027
CGGGGGTCCT,switch fluorescence ratio,0.986 ± 0.015
CGGGGGTGGC,switch fluorescence ratio,0.984 ± 0.029
CGGGGGTGTC,switch fluorescence ratio,0.998 ± 0.026
CGGGGGTTCG,switch fluorescence ratio,1.05 ± 0.057
CGGGGGTTGT,switch fluorescence ratio,0.963 ± 0.036
CGGGGTAAGT,switch fluorescence ratio,1.01 ± 0.021
CGGGGTAATG,switch fluorescence ratio,0.979 ± 0.012
CGGGGTACGT,switch fluorescence ratio,0.985 ± 0.027
CGGGGTAGCG,switch fluorescence ratio,0.965 ± 0.013
CGGGGTATAG,switch fluorescence ratio,1.37 ± 0.52
CGGGGTCGCC,switch fluorescence ratio,0.984 ± 0.021
CGGGGTGAAT,switch fluorescence ratio,1.022 ± 0.0052
CGGGGTGAGG,switch fluorescence ratio,0.997 ± 0.014
CGGGGTGCTT,switch fluorescence ratio,1.01 ± 0.012
CGGGGTGGTA,switch fluorescence ratio,0.9873 ± 0.0069
CGGGGTTGGG,switch fluorescence ratio,1.01 ± 0.047
CGGGGTTTTG,switch fluorescence ratio,1.014 ± 0.0068
CGGGTAAAGG,switch fluorescence ratio,0.9441 ± 0.0076
CGGGTACTAG,switch fluorescence ratio,1.02 ± 0.044
CGGGTAGCT,switch fluorescence ratio,1.01 ± 0.03
CGGGTAGTTA,switch fluorescence ratio,0.99 ± 0.029
CGGGTATGCC,switch fluorescence ratio,0.96 ± 0.0098
CGGGTCCAGC,switch fluorescence ratio,1.01 ± 0.033
CGGGTCGGCA,switch fluorescence ratio,1.03 ± 0.017
CGGGTCGTGC,switch fluorescence ratio,1.03 ± 0.013
CGGGTGATTC,switch fluorescence ratio,1.04 ± 0.021
CGGGTGCACT,switch fluorescence ratio,0.98 ± 0.027
CGGGTGTAGT,switch fluorescence ratio,1.03 ± 0.024
CGGGTGTATC,switch fluorescence ratio,1.03 ± 0.046
CGGGTGTGGA,switch fluorescence ratio,1.05 ± 0.04
CGGGTGTTCG,switch fluorescence ratio,1.02 ± 0.075
CGGGTTAAGT,switch fluorescence ratio,1.03 ± 0.11
CGGGTTAAT,switch fluorescence ratio,1 ± 0.041
CGGGTTATAA,switch fluorescence ratio,1.04 ± 0.022
CGGGTTATGG,switch fluorescence ratio,0.981 ± 0.049
CGGGTTCTAT,switch fluorescence ratio,0.977 ± 0.036
CGGGTTGCCC,switch fluorescence ratio,1 ± 0.012
CGGGTTGCGG,switch fluorescence ratio,0.9508 ± 0.009
CGGGTTTAAC,switch fluorescence ratio,0.998 ± 0.021
CGGGTTTGAC,switch fluorescence ratio,0.984 ± 0.047
CGGGTTTTAT,switch fluorescence ratio,1.01 ± 0.028
CGGTAAATAA,switch fluorescence ratio,1.01 ± 0.021
CGGTAAGGCG,switch fluorescence ratio,0.947 ± 0.11
CGGTAATCGG,switch fluorescence ratio,0.988 ± 0.01
CGGTAATGTG,switch fluorescence ratio,1.03 ± 0.035
CGGTAATTTT,switch fluorescence ratio,0.975 ± 0.021
CGGTACCATC,switch fluorescence ratio,1.02 ± 0.013
CGGTAGTGCG,switch fluorescence ratio,0.975 ± 0.021
CGGTCAGGGT,switch fluorescence ratio,0.995 ± 0.015
CGGTCATTTT,switch fluorescence ratio,0.998 ± 0.033
CGGTCCACGA,switch fluorescence ratio,1.022 ± 0.0017
CGGTCGAGGT,switch fluorescence ratio,0.993 ± 0.038
CGGTCGGGGA,switch fluorescence ratio,1 ± 0.043
CGGTCGGTGT,switch fluorescence ratio,0.982 ± 0.022
CGGTCTAATT,switch fluorescence ratio,0.9989 ± 0.0027
CGGTCTATGC,switch fluorescence ratio,1.12 ± 0.035
CGGTCTCCGG,switch fluorescence ratio,1.03 ± 0.012
CGGTCTGTTC,switch fluorescence ratio,0.994 ± 0.052
CGGTGAAATG,switch fluorescence ratio,0.975 ± 0.017
CGGTGAGGCT,switch fluorescence ratio,0.984 ± 0.017
CGGTGAGTGT,switch fluorescence ratio,0.9608 ± 0.0063
CGGTGATCGG,switch fluorescence ratio,0.996 ± 0.013
CGGTGCCGGT,switch fluorescence ratio,0.9841 ± 0.0091
CGGTGCGGGT,switch fluorescence ratio,0.992 ± 0.016
CGGTGCGGTG,switch fluorescence ratio,0.981 ± 0.013
CGGTGGAATC,switch fluorescence ratio,1.36 ± 0.45
CGGTGGCGTC,switch fluorescence ratio,1.01 ± 0.048
CGGTGGGGAT,switch fluorescence ratio,1.02 ± 0.046
CGGTGGGGCG,switch fluorescence ratio,1 ± 0.034
CGGTGGGGT,switch fluorescence ratio,1.035 ± 0.0064
CGGTGGGTCT,switch fluorescence ratio,1.006 ± 0.0015
CGGTGGGTTA,switch fluorescence ratio,0.985 ± 0.025
CGGTGGTGTG,switch fluorescence ratio,0.963 ± 0.048
CGGTGGTTGA,switch fluorescence ratio,1.01 ± 0.053
CGGTGTAAAA,switch fluorescence ratio,0.961 ± 0.011
CGGTGTCAGC,switch fluorescence ratio,1.012 ± 0.0059
CGGTTAAAAT,switch fluorescence ratio,0.989 ± 0.023
CGGTTAGCGG,switch fluorescence ratio,0.983 ± 0.044
CGGTTAGGCT,switch fluorescence ratio,1.06 ± 0.012
CGGTTATCGC,switch fluorescence ratio,1.03 ± 0.052
CGGTTATGGT,switch fluorescence ratio,0.99 ± 0.022
CGGTTCGGGC,switch fluorescence ratio,0.983 ± 0.023
CGGTTCTGTA,switch fluorescence ratio,1.01 ± 0.027
CGGTTCTTGA,switch fluorescence ratio,0.995 ± 0.038
CGGTTGACGT,switch fluorescence ratio,1.01 ± 0.013
CGGTTGAGTA,switch fluorescence ratio,0.9982 ± 0.0043
CGGTTGGCGT,switch fluorescence ratio,1.04 ± 0.088
CGGTTGGGGT,switch fluorescence ratio,0.989 ± 0.0088
CGGTTGTTGA,switch fluorescence ratio,1.01 ± 0.031
CGGTTGTTGT,switch fluorescence ratio,1.01 ± 0.021
CGGTTTAAGT,switch fluorescence ratio,0.993 ± 0.028
CGGTTTAGGA,switch fluorescence ratio,0.988 ± 0.028
CGGTTTCCGC,switch fluorescence ratio,1.04 ± 0.022
CGGTTTCTGT,switch fluorescence ratio,0.9814 ± 0.0092
CGGTTTGGTA,switch fluorescence ratio,0.976 ± 0.014
CGGTTTGTTA,switch fluorescence ratio,0.985 ± 0.037
CGGTTTGTTT,switch fluorescence ratio,0.987 ± 0.04
CGGTTTTATA,switch fluorescence ratio,0.9619 ± 0.0088
CGTAAAAAAT,switch fluorescence ratio,0.986 ± 0.068
CGTAACATGG,switch fluorescence ratio,1.022 ± 0.0099
CGTAACCCGT,switch fluorescence ratio,0.98 ± 0.033
CGTAACCTTA,switch fluorescence ratio,1.05 ± 0.15
CGTAACTAGG,switch fluorescence ratio,1.02 ± 0.03
CGTAACTGTG,switch fluorescence ratio,1.07 ± 0.043
CGTAAGCGTA,switch fluorescence ratio,1.04 ± 0.032
CGTAAGGGGG,switch fluorescence ratio,1.02 ± 0.035
